Data published in patent publication US20220227827A1 (DINGFU BIOTARGET, published 2022).

B1: reverse-(IL10)2-Fc9-a (Fc fusion)
chain 1: EPKSSDKTHTCPPCPAPELLGGPSVFLFPPKPKDTLMISRTPEVTCVVVDVSHEDPEVKFNWYVDGVEVHNAKTKPREEQYNSTYRVVSVLTVLHQDWLNGKEYKCKVSNKALPAPIEKTISKAKGQPREPQVYTLPPSRDELTKNQVSLSCGVKGFYPSDIAVEWESNGQPENNYKTTPPVLDSDGSFKLASKLTVDKSRWQQGNVFSCSVMHEALHNHYTQKSLSLSPGKGGGGSGGGGSGGGGSSPGQGTQSENSCTHFPGNLPNMLRDLRDAFSRVKTFFQMKDQLDNLLLKESLLEDFKGYLGCQALSEMIQFYLEEVMPQAENQDPDIKAHVNSLGENLKTLRLRLRRCHRFLPCENKSKAVEQVKNAFNKLQEKGIYKAMSEFDIFINYIEAYMTMKIRNGGGGSGGGGSGGGGSSPGQGTQSENSCTHFPGNLPNMLRDLRDAFSRVKTFFQMKDQLDNLLLKESLLEDFKGYLGCQALSEMIQFYLEEVMPQAENQDPDIKAHVNSLGENLKTLRLRLRRCHRFLPCENKSKAVEQVKNAFNKLQEKGIYKAMSEFDIFINYIEAYMTMKIRN
chain 2: DKTHTCPPCPAPELLGGPSVFLFPPKPKDTLMISRTPEVTCVVVDVSHENPEVKFNWYVDGVEVHNAKTKPREEQYNSTYRVVSVLTVLHQDWLNGKEYKCKVSNKALPAPIEKTISKAKGQPREPQVYTLPPSRDELTKNQVSLWCLVKGFYPSDIAVEWESNGQPENNYKTTPPVLDSDGSFFLYSALTVDKSRWQQGNVFSCSVMHEALHNHYTQKSLSLSPGK
notes: purified by protein A only; also called proteinaceous heterodimer of Group C
B2: Human IL10R1 (receptor)
chain: HGTELPSPPSVWFEAEFFHHILHWTPIPNQSESTCYEVALLRYGIESWNSISNCSQTLSYDLTAVTLDLYHSNGYRARVRAVDGSRHSNWTVTNTRFSVDEVTLTVGSVNLEIHNGFILGKIQLPRPKMAPANDTYESIFSHFREYEIAIRKVPGNFTFTHKKVKHENFSLLTSGEVGEFCVQVKPSVASRSNKGMWSKEECISLTRQYFTVTN
notes: Bought recombinant protein coated on the ELISA plate; also called hIL10R1; human IL10R1 proteins

What was measured:
Human IL10R1 = biological target: B2; test: ELISA, human IL10R1 coated at 5 ug/mL, detection with goat anti-hIgG-HRP
Procedure: Human IL10R1 (R&D, 9100-R1-050) was diluted to 5 μg/mL with coating buffer (50 mM Na₂CO₃, NaHCO₃ pH 9.6), 100 μL/well, overnight at 4° C. After washing, the plates were sealed with 3% BSA-PBS for 1 h at 37° C. The heterodimer proteins of the present disclosure were respectively diluted from 2000 ng/mL and were then diluted 2-fold to a total of 11 concentrations, with the diluent (1% BSA-PBS) as a control, and incubated for 2 h at 37° C. Goat anti-hIgG-HRP (Sigma, A0170) was added and incubated for 1 h at 37° C. The soluble one-component TMB substrate developing solution was added, and the developing was performed in dark at room temperature for 5-10 min. 2N H₂SO₄ 50 μL/well was added to terminate the color development reaction.

Erb-(IL10)2 = test: ELISA, human IL10R1 coated

Binder: B1
- EC50 (Human IL10R1): 0.0123 µg/mL

Binder: B2
- binding result (Erb-(IL10)2): binds
